Results on two substances are retold here after paper PMC2064704.

For test [1], the target named is endogenous actin filaments of XTC cells (Xenopus laevis (endogenous in XTC)) (UniProt O93400). Put plainly: decay of EGFP fluorescence in permeabilized cells.
For test [2] the target is unchanged. Kind of test: single-molecule speckle microscopy.

In the case of “EGFP-CPβ1 expressed in XTC cells (coupled with endogenous CPα subunits) (complex)”, the decay rate of fluorescence in lamellipodia of permeabilized cells in test [1] is 0.00017 s⁻¹. In addition, in test [2], the half-life of persistent speckles after 1 μM Jas turned out to be 68.9 s, the half-life of persistent speckles before Jas was 4.26 s, the half-life of persistent speckles in lamella away from stress fibers turned out to be 0.95 s and the half-life of persistent speckles on stress fibers stood at 2.9 s. For the same substance, the half-life of speckles in lamellipodia in test [2] was 1.2 s.

With “CPβ1-EGFP expressed in XTC cells (coupled with endogenous CPα subunits) (complex)”, in test [2], the half-life of speckles in lamellipodia came out at 1.23 s.
